This test concerns the target recombinant CD22 extracellular domain. The test can be described thus: The sheet does not state the method. The column 'KD (nM)' stands beside the confocal data. The values largely repeat FIGURE 18 (SPR on recombinant CD22 extracellular domain), so the target form is taken from there.

One may read the Kd as a measure of binding affinity in units of concentration.

Sequence of recombinant CD22 extracellular domain (chain, as listed by the source limits assumed): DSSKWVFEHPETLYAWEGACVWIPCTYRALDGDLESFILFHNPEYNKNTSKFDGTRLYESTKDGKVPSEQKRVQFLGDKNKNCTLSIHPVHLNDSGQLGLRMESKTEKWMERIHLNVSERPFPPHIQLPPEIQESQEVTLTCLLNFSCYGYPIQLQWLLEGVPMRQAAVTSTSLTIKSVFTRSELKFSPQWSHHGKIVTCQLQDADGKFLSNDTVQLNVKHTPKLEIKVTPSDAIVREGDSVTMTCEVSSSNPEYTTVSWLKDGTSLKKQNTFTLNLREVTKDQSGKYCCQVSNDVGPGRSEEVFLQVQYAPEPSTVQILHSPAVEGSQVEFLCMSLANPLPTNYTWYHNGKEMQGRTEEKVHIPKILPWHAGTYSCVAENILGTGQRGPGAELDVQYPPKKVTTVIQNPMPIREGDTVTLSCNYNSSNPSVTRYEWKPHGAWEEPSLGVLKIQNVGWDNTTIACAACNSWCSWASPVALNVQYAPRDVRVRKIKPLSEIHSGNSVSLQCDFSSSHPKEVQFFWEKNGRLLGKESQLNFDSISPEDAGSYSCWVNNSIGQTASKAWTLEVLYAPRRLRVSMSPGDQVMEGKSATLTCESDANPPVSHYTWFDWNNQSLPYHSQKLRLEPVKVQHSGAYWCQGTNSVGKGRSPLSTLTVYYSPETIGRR

For LL2 (mouse Mab) (antibody), the Kd was 20 nM.

The record behind these values is patent US20150086562A1.
